In the assay the target is BS69 CC-MYND domain (amino acids 480-602) (human) (UniProt Q15326). Briefly: ITC.
Sequence of BS69 CC-MYND domain (amino acids 480-602) (human) (Q15326 480-602): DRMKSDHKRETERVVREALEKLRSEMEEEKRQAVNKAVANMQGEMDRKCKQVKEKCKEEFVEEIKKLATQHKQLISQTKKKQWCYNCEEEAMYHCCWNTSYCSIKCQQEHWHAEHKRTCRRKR

Sequence of type 1 EBNA2 polypeptide T1 EBNA2_(381-445) (domain or fragment) (P12978 381-445): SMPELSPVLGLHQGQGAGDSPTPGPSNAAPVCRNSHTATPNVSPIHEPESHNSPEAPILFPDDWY

In general, Kd refers to the equilibrium constant for the complex coming apart. A higher Kd goes with weaker binding. With type 1 EBNA2 motif 2 peptide (435-445), the Kd was 47.7 µM.

With “type 1 EBNA2 polypeptide T1 EBNA2_(381-445) (domain or fragment)”, the Kd was found to be 0.95 µM and the stoichiometry N (molar ratio EBNA2 : BS69CC-MYND monomer) was 0.42.

Values taken from publication doi:10.1101/464131.
